The values below come from patent publication US20160159919A1 (Chugai, published 2016).

Where a chain is given by its changes, count along the chain named.

For test [1], the target named is T1, cynomolgus EREG (Biacore analyte) (cynomolgus monkey, UniProt O14944 63-108 (human entry), limits assumed).
T1 construct: also called cynomolgus monkey EREG; cEREG
In words: SPR (Biacore T100), antibody captured on Protein A, EREG as analyte, single-cycle kinetics. How it is done: (§1) The affinity and association rate constant of an anti-EREG antibody for an antigen were measured by the single-cycle kinetics method of surface plasmon resonance assay using Biacore™-T100 (GE Healthcare Japan). HBS-EP+ (GE Healthcare Japan) was used for the running buffer, and an amine coupling kit (GE Healthcare Japan) was used to covalently bond Protein A to the CM5 chip (carboxymethyl dextran-coated chip). Each anti-EREG antibody was prepared so that approximately 350 RU will be captured by Protein A. Human EREG or cynomolgus EREG used as the analyte was prepared at 0, 0.7, 1.4, 2.8, 5.6, and 11.2 nM using HBS-EP+. Measurement was carried out by first allowing Protein A to capture the antibody solution, and then at a flow rate of 30 μL/min, successively injecting each of the 0, 0.7, 1.4, 2.8, 5.6, and 11.2 nM human EREG or cynomolgus EREG solutions for three minutes to allow reaction to take place. Then, the solution was switched to HBS-EP+, and the dissociation phase was measured for 15 minutes. After completion of the dissociation phase measurement, the sensor chip was washed with 25 mM NaOH and regenerated. The measurement at zero concentration was similarly carried out by allowing Protein A to capture the antibody solution, and performing three-minute HBS-EP+ injections successively for five times to allow reaction to take place, and then switching to HBS-EP+ to measure the dissociation phase for 15 minutes. After completion of the dissociation phase measurement, the sensor chip was washed with 25 mM NaOH and regenerated. A data analysis software exclusively for Biacore, Biacore T100 Evaluation Software Version 2.0.1, was used to perform kinetic analyses to calculate the association rate constant (kₐ), dissociation rate constant (kd), and the rate constant ratio from the obtained sensorgrams. To correct for the day-to-day differences in the measurement values, FIGS. 1 to 4 and Tables 16 and 19 show ratios based on taking the value of the control sample (cH-G1/cL-k) measured on the same day as 1.

The target in test [2] is T2, Human EREG (Biacore analyte) (human, UniProt O14944 63-108).
T2 construct: also called hEREG; human epiregulin
Described as above. The protocol:
as §1

The target in test [3] is T3, hsEREG-His (mature human EREG-6His fusion protein) (human, UniProt O14944 30-108).
T3 sequence: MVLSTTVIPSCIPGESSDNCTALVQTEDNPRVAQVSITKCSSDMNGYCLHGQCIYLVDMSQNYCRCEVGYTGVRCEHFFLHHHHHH
In words: cell-based or functional assay.

Test [4] has as its target T1, cynomolgus EREG (Biacore analyte). As to the kind of experiment: SPR (Biacore T100); KD for monkey EREG over KD for human EREG. The protocol:
as §1
(In general: In SPR one partner is held on a chip, and binding of the other changes the refractive index at the surface.)

The target is the same in test [5]. In words: SPR (Biacore T100), antibody captured on Protein A, EREG as analyte; KD for monkey EREG over KD for human EREG. The protocol: as §1

T1 sequence (O14944 other isoform, or with tags, fused parts or gaps limits assumed): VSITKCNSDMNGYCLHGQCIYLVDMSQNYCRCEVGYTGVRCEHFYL

B1: chimeric antibody EP27 (cH-G1/cL-k) (antibody, human IgG1, kappa, V domains shown)
VH: EDQLQQSGAELVKPGASVKLSCTASGFNIKDTYIQWVKLRPEQGLEWIGRIDPLNGNTKYVPKFQGKATITADTSSNTAYLQLSSLTSEDTAVYYCVRSGTLFDFWGQGTTLTVSS
VL: DIQMTQSPSSLSASLGGKVTITCKASQDIHKYIAWYQHKPGKGPRLLIQYTSTLQPGIPSRFSGSGSGRDYSFSISNLEPEDIATYYCLQYDNLRTFGGGTKLEIKR
notes: mouse EP27 variable regions with human IgG1 (G1) and kappa constant regions; also called chimeric EP27
What is called Kd is the equilibrium constant for the complex coming apart. The koff is a measure of how fast the partners let go of each other. As a reminder, the kon is the rate constant with which the complex forms. Turning to B1, in test [1], the affinity, expressed as Kd, was 5.2 nM; the koff stood at 0.0052 s⁻¹; the kon came to 990000 M⁻¹ s⁻¹. Also, in test [2], the equilibrium dissociation constant (Kd) worked out at 0.2 nM, the koff stood at 0.00022 s⁻¹ and the association rate constant (kon) is 1.1e+06 M⁻¹ s⁻¹. The “IC50 (read off the curve), growth ratio of EGFR_BAF cells with hsEREG-His 2.5 ng/mL” value (shortened to “IC50 (read off the curve), growth ratio”) in test [3] is ~0.7 µg/mL. The “cEREG (nM)/hEREG (nM)” value in test [4] was 40.9 ratio. The “cEREG KD (nM)/hEREG KD (nM)” value in test [5] is 40.9 ratio.

B2: H240-G1d/L53-k (antibody, human IgG1, kappa, V domains shown)
VH: QDQLVQSGAEVKKPGASVKVSCKASGFNIKDTYIQWVRQAPGQGLEWMGRIDPLRKQTKYREKFEGRVTITADTSTNTAYMELSSLRSEDTAVYYCVRSGREFDYWGQGTLVTVSS
VL: DIQMTQSPSSLSASVGDRVTITCRASQDIHKYIAWYQQKPGQAPRLLIQYTSTLQPGVPSRFSGSGSGTDYTFTISSLQPEDIATYYCLQYDNLRTFGGGTKVEIKR
In the case of B2, in test [1], the Kd was 1.5 nM, the koff is 0.00089 s⁻¹ and the kon is 610000 M⁻¹ s⁻¹. In test [2], this molecule yielded a Kd of 0.27 nM, an off-rate (koff) of 0.00011 s⁻¹ and a kon of 420000 M⁻¹ s⁻¹. Moreover, the “IC50 (read off the curve), growth ratio” value in test [3] is ~0.4 µg/mL. The “cEREG (nM)/hEREG (nM)” value in test [4] is 5.4 ratio.

B3: H240-G1d/L73-k (antibody, human IgG1, kappa, V domains shown)
VH: B2 VH
VL: B2 VL with D92E, N93Q
Turning to B3, in test [1], binding was put at a Kd of 0.87 nM, the off-rate (koff) came out at 0.00029 s⁻¹ and the kon stood at 340000 M⁻¹ s⁻¹. In test [2], this molecule gave a Kd of 0.22 nM, a koff of 7.7e-05 s⁻¹ and a kon of 340000 M⁻¹ s⁻¹. Also, in test [3], the “IC50 (read off the curve), growth ratio” value is ~0.5 µg/mL. For the same molecule, in test [4], the “cEREG (nM)/hEREG (nM)” value turned out to be 3.6 ratio.
